Laboratory results: paper PMC9927946

Target: 2P-IRS-1 (bisphosphorylated IRS-1 peptide), labeled with Cy5
Experiment: MST; Monolith NT.115; 100 nM Cy5-labeled 2P-IRS-1, unlabeled protein serially diluted; 25 °C; n=3

Row | Kd [µM] | Substance
1 | > 1000 | NEDD8-SHP2 conjugation (SHP2 neddylated in the in vitro neddylation assay) (from UniProt Q06124 1-593; Q15843 1-76) (complex)
2 | 473 | SHP2 WT recombinant protein (Src homology region 2-containing protein tyrosine phosphatase 2) (from UniProt Q06124 1-593) (enzyme)
